Patent publication US20030124117A1
Where two headings read alike, the source gives them in different places. Each block holds one molecule with its values, some of them ahead of it.

How the values were obtained:
[1] = biological target: soluble tissue factor composed of the extracellular domain residues 1-219 of hTF (human) (UniProt P13726); assay: TF binding assay (ELISA on coated human soluble TF), ratio to chimeric F(ab) standard
[2] = biological target: truncated transmembrane tissue factor comprising residues 1-243, relipidated (human) (UniProt P13726); assay: cell-based or functional assay
Chain of truncated transmembrane tissue factor comprising residues 1-243, relipidated (human) (P13726 33-275): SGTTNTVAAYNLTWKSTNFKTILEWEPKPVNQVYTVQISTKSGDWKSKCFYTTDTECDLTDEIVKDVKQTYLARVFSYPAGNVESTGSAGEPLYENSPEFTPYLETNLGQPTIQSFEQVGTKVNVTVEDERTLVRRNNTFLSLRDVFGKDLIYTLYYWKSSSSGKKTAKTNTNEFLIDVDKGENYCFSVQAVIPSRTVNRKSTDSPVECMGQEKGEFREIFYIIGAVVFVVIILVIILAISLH

[3] = biological target: relipidated human tissue factor (Innovin) (human) (UniProt P13726); assay: cell-based or functional assay
Chain of relipidated human tissue factor (Innovin) (human) (P13726 33-295 limits assumed): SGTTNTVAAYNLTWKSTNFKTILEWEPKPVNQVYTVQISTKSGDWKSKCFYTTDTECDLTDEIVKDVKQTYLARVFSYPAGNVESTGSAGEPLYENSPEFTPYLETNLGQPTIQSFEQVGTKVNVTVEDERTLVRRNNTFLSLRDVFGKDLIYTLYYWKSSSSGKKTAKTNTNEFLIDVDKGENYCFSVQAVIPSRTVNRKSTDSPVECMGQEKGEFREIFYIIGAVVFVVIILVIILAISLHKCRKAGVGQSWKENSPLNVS

[4] = biological target: tissue factor on human J82 cells (human) (UniProt P13726); assay: cell-based or functional assay
Chain of tissue factor on human J82 cells (human) (P13726 33-295): as the sequence (P13726 33-295 limits assumed) above

[5] = biological target: truncated transmembrane tissue factor comprising residues 1-243, relipidated (human) (UniProt P13726); assay: cell-based or functional assay; remark: listed apart in the source

Chain of soluble tissue factor composed of the extracellular domain residues 1-219 of hTF (human) (P13726 33-251): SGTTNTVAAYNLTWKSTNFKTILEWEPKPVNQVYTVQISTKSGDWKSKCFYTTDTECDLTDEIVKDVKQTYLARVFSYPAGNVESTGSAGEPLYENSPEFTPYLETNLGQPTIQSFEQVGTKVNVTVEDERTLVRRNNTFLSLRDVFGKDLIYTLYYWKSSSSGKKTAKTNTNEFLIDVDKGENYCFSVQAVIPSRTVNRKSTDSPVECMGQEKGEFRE

- concentration inhibiting the rate of FX activation in human plasma by 50% [2]: 150 µg/mL
Molecule: HTF1 antibody

- antibody concentration prolonging the clotting time (PT) by 1.5-fold [3]: 27 µg/mL
- IC50 of FPA generation, human ex-vivo blood flow system with J82 cells [4]: 50 µg/mL
- concentration inhibiting the rate of FX activation in human plasma by 50% [5]: 15.5 µg/mL
B1: murine anti-TF antibody 5G6 (antibody, V domains shown)
VH: EVLLQQSGPELVKPGASVKIPCKASGYTFTEYNMDWVKQSHGKSLEWIGDINPNNGNTIYNQKFKGKATLTVDKSSTTAYLELRSLTSEDTAVYFCARDHDYYFDFWGQGTTLTVSS
VL: DIQMTQTPASQSASLGESVTITCLASQTIDTWLAWYQQKPGKSPQLLIYAATSLADGVPSRFSGSGSGTKFSFKISSLQAEDFVSYYCQQPYSSPYTFGGGTKLELKR
modifications: murine constant regions

More lines, now with the values behind:

Molecule: chimeric D3 F(ab) with CDR-H2 Asp H65 changed to Gly (Fab)
- fold reduction in binding against chimeric D3 F(ab) [1]: 14.2 fold

Molecule: chimeric D3 F(ab) with CDR-H3 Thr96-Ala97-Ala98 changed to TF8 Asn96-Ser97-Tyr98 (Fab)
- fold reduction in binding against chimeric D3 F(ab) [1]: 20.3 fold
